Data published in PMC10786891, “Massively parallel profiling of RNA-targeting CRISPR-Cas13d”.

T1: EsCas13d, nuclease-dead (Eubacterium siraeum, UniProt B0MS50, R295A;H300A;R849A;H854A)
T1 sequence: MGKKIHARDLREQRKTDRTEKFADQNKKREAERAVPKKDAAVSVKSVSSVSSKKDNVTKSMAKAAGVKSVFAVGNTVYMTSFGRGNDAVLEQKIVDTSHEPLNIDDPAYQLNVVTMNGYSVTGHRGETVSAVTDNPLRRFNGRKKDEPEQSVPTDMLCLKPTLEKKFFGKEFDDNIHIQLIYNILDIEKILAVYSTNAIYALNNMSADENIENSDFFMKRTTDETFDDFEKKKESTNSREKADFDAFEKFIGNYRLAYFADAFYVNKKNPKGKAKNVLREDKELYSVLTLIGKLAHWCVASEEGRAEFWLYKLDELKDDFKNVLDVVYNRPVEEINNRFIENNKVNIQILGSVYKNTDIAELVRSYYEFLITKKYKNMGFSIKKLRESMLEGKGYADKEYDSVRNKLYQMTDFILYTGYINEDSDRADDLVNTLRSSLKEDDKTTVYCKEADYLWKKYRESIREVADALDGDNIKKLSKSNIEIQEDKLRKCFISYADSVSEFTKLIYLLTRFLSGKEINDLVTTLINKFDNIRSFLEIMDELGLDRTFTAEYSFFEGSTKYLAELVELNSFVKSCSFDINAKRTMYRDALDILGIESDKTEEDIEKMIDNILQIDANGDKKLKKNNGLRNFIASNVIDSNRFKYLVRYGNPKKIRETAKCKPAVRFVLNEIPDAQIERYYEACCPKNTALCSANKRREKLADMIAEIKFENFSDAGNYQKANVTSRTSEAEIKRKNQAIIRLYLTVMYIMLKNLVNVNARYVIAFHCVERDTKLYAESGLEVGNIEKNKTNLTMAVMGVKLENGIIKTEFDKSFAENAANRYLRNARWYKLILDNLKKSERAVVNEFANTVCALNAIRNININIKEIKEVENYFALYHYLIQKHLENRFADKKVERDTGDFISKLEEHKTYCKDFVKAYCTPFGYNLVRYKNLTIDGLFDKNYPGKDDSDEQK


These binders were tested against T1, EsCas13d, nuclease-dead (assay: crRNA (strand 1, pre-loaded); Mg2+; 40 mM Tris-HCl pH 7.5, 150 mM NaCl, 6 mM MgCl2, 1 mM DTT, 0.1% Tween-20, 0.2 mg/ml BSA; 25 C; 10 min per concentration, then washed). Details: tags: His6-TwinStrep-SUMO cleaved; N-terminal SNAP kept (SNAP-Surface 488); label: 3' end held by stalled T7 RNA polymerase.

Binder	Kd
target 3 insG 3' of 7,insG 3' of 2 (mixed) RNA 1: CACCCGUGCAAAAUUGCAGGGGUCUAAAACGACCUGAAUAUUUCAGAUCAAA RNA 2: GGGAAUGGAUCCACAUCUACGAAUUCGUUUUUGAUCUGAAAUAUUGCAGGUGCUGCAGAUCGGAAGAGCACACGU	32.6 ± 5.4 nM
target 3 insA 3' of 6,insG 3' of 5 (mixed) RNA 1: CACCCGUGCAAAAUUGCAGGGGUCUAAAACGACCUGAAUAUUUCAGAUCAAA RNA 2: GGGAAUGGAUCCACAUCUACGAAUUCGUUUUUGAUCUGAAAUAUUCAAGGGUCUGCAGAUCGGAAGAGCACACGU	5.51 ± 0.325 nM
target 3 insU 3' of 16,insA 3' of 2 (mixed) RNA 1: CACCCGUGCAAAAUUGCAGGGGUCUAAAACGACCUGAAUAUUUCAGAUCAAA RNA 2: GGGAAUGGAUCCACAUCUACGAAUUCGUUUUUGAUCUUGAAAUAUUCAGGUACUGCAGAUCGGAAGAGCACACGU	16.1 ± 1.9 nM
target 3 insG 3' of 7,insA 3' of 4 (mixed) RNA 1: CACCCGUGCAAAAUUGCAGGGGUCUAAAACGACCUGAAUAUUUCAGAUCAAA RNA 2: GGGAAUGGAUCCACAUCUACGAAUUCGUUUUUGAUCUGAAAUAUUGCAGAGUCUGCAGAUCGGAAGAGCACACGU	88 ± 17.5 nM
target 3 insG 3' of 5,insG 3' of 5 (mixed) RNA 1: CACCCGUGCAAAAUUGCAGGGGUCUAAAACGACCUGAAUAUUUCAGAUCAAA RNA 2: GGGAAUGGAUCCACAUCUACGAAUUCGUUUUUGAUCUGAAAUAUUCAGGGGUCUGCAGAUCGGAAGAGCACACGU	25.3 ± 5.25 nM
target 3 insA 3' of 8,insU 3' of 6 (mixed) RNA 1: CACCCGUGCAAAAUUGCAGGGGUCUAAAACGACCUGAAUAUUUCAGAUCAAA RNA 2: GGGAAUGGAUCCACAUCUACGAAUUCGUUUUUGAUCUGAAAUAUAUCUAGGUCUGCAGAUCGGAAGAGCACACGU	34.2 ± 3.35 nM
target 3 insC 3' of 11,insC 3' of 5 (mixed) RNA 1: CACCCGUGCAAAAUUGCAGGGGUCUAAAACGACCUGAAUAUUUCAGAUCAAA RNA 2: GGGAAUGGAUCCACAUCUACGAAUUCGUUUUUGAUCUGAAACUAUUCACGGUCUGCAGAUCGGAAGAGCACACGU	88 ± 25 nM
target 3 U20C,U22A (mixed) RNA 1: CACCCGUGCAAAAUUGCAGGGGUCUAAAACGACCUGAAUAUUUCAGAUCAAA RNA 2: GGGAAUGGAUCCACAUCUACGAAUUCGUUAUCGAUCUGAAAUAUUCAGGUCUGCAGAUCGGAAGAGCACACGU	55 ± 12 nM
target 3 insA 3' of 10,insC 3' of 5 (mixed) RNA 1: CACCCGUGCAAAAUUGCAGGGGUCUAAAACGACCUGAAUAUUUCAGAUCAAA RNA 2: GGGAAUGGAUCCACAUCUACGAAUUCGUUUUUGAUCUGAAAUAAUUCACGGUCUGCAGAUCGGAAGAGCACACGU	74.5 ± 11.5 nM
target 3 U2G,C16U (mixed) RNA 1: CACCCGUGCAAAAUUGCAGGGGUCUAAAACGACCUGAAUAUUUCAGAUCAAA RNA 2: GGGAAUGGAUCCACAUCUACGAAUUCGUUUUUGAUUUGAAAUAUUCAGGGCUGCAGAUCGGAAGAGCACACGU	21.6 ± 2.7 nM
target 3 G3U,C6G (mixed) RNA 1: CACCCGUGCAAAAUUGCAGGGGUCUAAAACGACCUGAAUAUUUCAGAUCAAA RNA 2: GGGAAUGGAUCCACAUCUACGAAUUCGUUUUUGAUCUGAAAUAUUGAGUUCUGCAGAUCGGAAGAGCACACGU	56.5 ± 11.5 nM
target 3 insA 3' of 4,insA 3' of 2 (mixed) RNA 1: CACCCGUGCAAAAUUGCAGGGGUCUAAAACGACCUGAAUAUUUCAGAUCAAA RNA 2: GGGAAUGGAUCCACAUCUACGAAUUCGUUUUUGAUCUGAAAUAUUCAGAGUACUGCAGAUCGGAAGAGCACACGU	33 ± 7 nM
target 3 C6G,A9G (mixed) RNA 1: CACCCGUGCAAAAUUGCAGGGGUCUAAAACGACCUGAAUAUUUCAGAUCAAA RNA 2: GGGAAUGGAUCCACAUCUACGAAUUCGUUUUUGAUCUGAAAUGUUGAGGUCUGCAGAUCGGAAGAGCACACGU	46.5 ± 5.5 nM
target 3 insU 3' of 13,insU 3' of 5 (mixed) RNA 1: CACCCGUGCAAAAUUGCAGGGGUCUAAAACGACCUGAAUAUUUCAGAUCAAA RNA 2: GGGAAUGGAUCCACAUCUACGAAUUCGUUUUUGAUCUGAUAAUAUUCAUGGUCUGCAGAUCGGAAGAGCACACGU	106 ± 45.5 nM
target 3 U7A,U8C (mixed) RNA 1: CACCCGUGCAAAAUUGCAGGGGUCUAAAACGACCUGAAUAUUUCAGAUCAAA RNA 2: GGGAAUGGAUCCACAUCUACGAAUUCGUUUUUGAUCUGAAAUACACAGGUCUGCAGAUCGGAAGAGCACACGU	59.5 ± 7 nM
target 3 insU 3' of 22,insC 3' of 19 (mixed) RNA 1: CACCCGUGCAAAAUUGCAGGGGUCUAAAACGACCUGAAUAUUUCAGAUCAAA RNA 2: GGGAAUGGAUCCACAUCUACGAAUUCGUUUUUUGCAUCUGAAAUAUUCAGGUCUGCAGAUCGGAAGAGCACACGU	60.5 ± 15.5 nM
target 3 insG 3' of 8,insA 3' of 6 (mixed) RNA 1: CACCCGUGCAAAAUUGCAGGGGUCUAAAACGACCUGAAUAUUUCAGAUCAAA RNA 2: GGGAAUGGAUCCACAUCUACGAAUUCGUUUUUGAUCUGAAAUAUGUCAAGGUCUGCAGAUCGGAAGAGCACACGU	43.5 ± 6 nM
target 3 insA 3' of 10,insC 3' of 4 (mixed) RNA 1: CACCCGUGCAAAAUUGCAGGGGUCUAAAACGACCUGAAUAUUUCAGAUCAAA RNA 2: GGGAAUGGAUCCACAUCUACGAAUUCGUUUUUGAUCUGAAAUAAUUCAGCGUCUGCAGAUCGGAAGAGCACACGU	90 ± 32 nM
target 3 C6A,A18G (mixed) RNA 1: CACCCGUGCAAAAUUGCAGGGGUCUAAAACGACCUGAAUAUUUCAGAUCAAA RNA 2: GGGAAUGGAUCCACAUCUACGAAUUCGUUUUUGGUCUGAAAUAUUAAGGUCUGCAGAUCGGAAGAGCACACGU	55.5 ± 10.5 nM
target 3 del1,del4 (mixed) RNA 1: CACCCGUGCAAAAUUGCAGGGGUCUAAAACGACCUGAAUAUUUCAGAUCAAA RNA 2: GGGAAUGGAUCCACAUCUACGAAUUCGUUUUUGAUCUGAAAUAUUCAGUUGCAGAUCGGAAGAGCACACGU	18 ± 2.5 nM
target 3 insC 3' of 22 (mixed) RNA 1: CACCCGUGCAAAAUUGCAGGGGUCUAAAACGACCUGAAUAUUUCAGAUCAAA RNA 2: GGGAAUGGAUCCACAUCUACGAAUUCGUUUCUUGAUCUGAAAUAUUCAGGUCUGCAGAUCGGAAGAGCACACGU	21.4 ± 2.3 nM
target 3 A11G,A18G (mixed) RNA 1: CACCCGUGCAAAAUUGCAGGGGUCUAAAACGACCUGAAUAUUUCAGAUCAAA RNA 2: GGGAAUGGAUCCACAUCUACGAAUUCGUUUUUGGUCUGAAGUAUUCAGGUCUGCAGAUCGGAAGAGCACACGU	70 ± 25 nM
target 3 insU 3' of 4 (mixed) RNA 1: CACCCGUGCAAAAUUGCAGGGGUCUAAAACGACCUGAAUAUUUCAGAUCAAA RNA 2: GGGAAUGGAUCCACAUCUACGAAUUCGUUUUUGAUCUGAAAUAUUCAGUGUCUGCAGAUCGGAAGAGCACACGU	4.39 ± 0.415 nM
target 3 insA 3' of 6 (mixed) RNA 1: CACCCGUGCAAAAUUGCAGGGGUCUAAAACGACCUGAAUAUUUCAGAUCAAA RNA 2: GGGAAUGGAUCCACAUCUACGAAUUCGUUUUUGAUCUGAAAUAUUCAAGGUCUGCAGAUCGGAAGAGCACACGU	7.8 ± 0.65 nM
target 3 insA 3' of 8,insA 3' of 6 (mixed) RNA 1: CACCCGUGCAAAAUUGCAGGGGUCUAAAACGACCUGAAUAUUUCAGAUCAAA RNA 2: GGGAAUGGAUCCACAUCUACGAAUUCGUUUUUGAUCUGAAAUAUAUCAAGGUCUGCAGAUCGGAAGAGCACACGU	58.5 ± 6.5 nM
target 1 U8G,U11C (mixed) RNA 1: CACCCGUGCAAAAAUGCAGGGGUCUAAAACUGAGCGGAUAACCUCUCUAUGG RNA 2: GGGAAUGGAUCCACAUCUACGAAUUCGUACCAUAGAGAGGCUAGCCGCUCACCGAGAUCGGAAGAGCACACGU	29.5 ± 3.1 nM
target 1 complement block 4-13 (mixed) RNA 1: CACCCGUGCAAAAAUGCAGGGGUCUAAAACUGAGCGGAUAACCUCUCUAUGG RNA 2: GGGAAUGGAUCCACAUCUACGAAUUCGUACCAUAGAGACCAAUAGGCGUCACCGAGAUCGGAAGAGCACACGU	55 ± 6 nM
target 1 C2G,A18C (mixed) RNA 1: CACCCGUGCAAAAAUGCAGGGGUCUAAAACUGAGCGGAUAACCUCUCUAUGG RNA 2: GGGAAUGGAUCCACAUCUACGAAUUCGUACCAUCGAGAGGUUAUCCGCUGACCGAGAUCGGAAGAGCACACGU	44 ± 4 nM
